{"source": "IntAct's records for PubMed 21960005", "parents": {"B1": {"name": "Ran-binding protein 3 (Homo sapiens), Q9H6Z4 (parent)", "chain": "MADLANEEKPAIAPPVFVFQKDKGQKSPAEQKNLSDSGEEPRGEAEAPHHGTGHPESAGEHALEPPAPAGASASTPPPPAPEAQLPPFPRELAGRSAGGSSPEGGEDSDREDGNYCPPVKRERTSSLTQFPPSQSEERSSGFRLKPPTLIHGQAPSAGLPSQKPKEQQRSVLRPAVLQAPQPKALSQTVPSSGTNGVSLPADCTGAVPAASPDTAAWRSPSEAADEVCALEEKEPQKNESSNASEEEACEKKDPATQQAFVFGQNLRDRVKLINESVDEADMENAGHPSADTPTATNYFLQYISSSLENSTNSADASSNKFVFGQNMSERVLSPPKLNEVSSDANRENAAAESGSESSSQEATPEKESLAESAAAYTKATARKCLLEKVEVITGEEAESNVLQMQCKLFVFDKTSQSWVERGRGLLRLNDMASTDDGTLQSRLVMRTQGSLRLILNTKLWAQMQIDKASEKSIRITAMDTEDQGVKVFLISASSKDTGQLYAALHHRILALRSRVEQEQEAKMPAPEPGAAPSNEEDDSDDDDVLAPSGATAAGAGDEGDGQTTGST"}, "B2": {"name": "Ran-binding protein 3 (Homo sapiens), Q9H6Z4 (parent)", "chain": "B1 chain", "partner": "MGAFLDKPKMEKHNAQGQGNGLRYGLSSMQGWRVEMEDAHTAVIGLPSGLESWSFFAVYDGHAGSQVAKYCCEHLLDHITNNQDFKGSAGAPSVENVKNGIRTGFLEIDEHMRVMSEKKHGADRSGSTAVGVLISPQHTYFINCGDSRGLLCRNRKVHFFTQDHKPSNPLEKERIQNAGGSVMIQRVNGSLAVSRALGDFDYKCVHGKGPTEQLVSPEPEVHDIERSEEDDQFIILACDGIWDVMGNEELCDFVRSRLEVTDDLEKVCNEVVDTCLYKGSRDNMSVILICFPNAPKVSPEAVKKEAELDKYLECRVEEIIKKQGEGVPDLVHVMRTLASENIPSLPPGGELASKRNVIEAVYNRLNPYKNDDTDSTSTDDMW"}}}
{"variants_of": "B1", "details": "with smad2_human SMAD2, Q15796"}
{"variant": "S57D", "effect of a mutation on the interaction": "decreasing interaction"}
{"variants_of": "B2", "details": "with ppm1a_human PPM1A"}
{"variant": "S57D", "effect of a mutation on the interaction": "increasing interaction"}
{"variants_of": "B2", "details": "with ppm1a_human PPM1A", "remark": "another data set of the same source"}
{"variant": "S57A", "effect of a mutation on the interaction": "decreasing interaction"}
